Data published in patent US20150044231A1 (Novo Nordisk, published 2015).
Positions count from the first letter of the chain named. In names and notes the source's numbering stands.

Tests used:
His-FcγRIII (158V) = His-FcγRIII (158V) (UniProt P08637); experiment: SPR (BIAcore T100), Fc variant immobilised, His-FcγR as analyte
His-FcγRI = His-FcγRI (UniProt P12314); experiment: as above
His-FcγRIIA (131H) = His-FcγRIIA (131H) (UniProt P12318); experiment: as above
His-FcγRIIA (131R) = His-FcγRIIA (131R) (UniProt P12318); experiment: as above
His-FcγRIIA (131R), sequence (P12318 36-218 H167R limits assumed): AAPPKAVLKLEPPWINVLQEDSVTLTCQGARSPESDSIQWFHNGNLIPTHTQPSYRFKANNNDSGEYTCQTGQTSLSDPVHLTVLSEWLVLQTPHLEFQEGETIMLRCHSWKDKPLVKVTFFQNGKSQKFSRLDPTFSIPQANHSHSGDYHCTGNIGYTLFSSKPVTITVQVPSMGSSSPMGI

His-FcγRIIB = His-FcγRIIB (UniProt P31994); experiment: as above
His-FcγRIIB, sequence (P31994 46-217 limits assumed): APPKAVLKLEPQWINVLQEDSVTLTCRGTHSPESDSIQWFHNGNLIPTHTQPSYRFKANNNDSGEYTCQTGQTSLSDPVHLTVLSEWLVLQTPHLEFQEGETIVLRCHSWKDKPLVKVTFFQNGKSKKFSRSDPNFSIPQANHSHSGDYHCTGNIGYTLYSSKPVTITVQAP

His-FcγRIII (158F) = His-FcγRIII (158F) (UniProt P08637); experiment: as above
His-FcγRIII (158F), sequence (P08637 17-208 limits assumed): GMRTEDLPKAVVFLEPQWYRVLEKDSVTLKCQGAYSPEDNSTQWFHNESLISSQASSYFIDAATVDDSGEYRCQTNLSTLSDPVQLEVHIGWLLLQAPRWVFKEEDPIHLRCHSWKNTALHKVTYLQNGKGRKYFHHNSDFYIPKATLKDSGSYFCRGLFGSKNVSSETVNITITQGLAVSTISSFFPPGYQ

human C5a receptor [1] = biological target: T1, human C5a receptor (human, UniProt P21730 1-350); experiment: cell-based or functional assay
T1 sequence: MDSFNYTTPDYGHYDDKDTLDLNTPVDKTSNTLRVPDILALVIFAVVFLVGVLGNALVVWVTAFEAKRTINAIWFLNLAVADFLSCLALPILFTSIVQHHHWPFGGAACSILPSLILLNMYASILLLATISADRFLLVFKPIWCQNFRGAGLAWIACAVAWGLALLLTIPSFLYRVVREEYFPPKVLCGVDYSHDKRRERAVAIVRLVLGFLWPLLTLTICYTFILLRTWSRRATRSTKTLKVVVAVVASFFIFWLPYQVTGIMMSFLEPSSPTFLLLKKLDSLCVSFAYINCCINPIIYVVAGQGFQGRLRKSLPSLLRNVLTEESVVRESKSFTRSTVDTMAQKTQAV

human C5a receptor [2] = biological target: T1, human C5a receptor; experiment: SPA, displacement of 125I-hC5a from RBL-hC5aR membranes
Method: (§1) A detailed description of the SPA is provided in U.S. Pat. No. 4,568,649 and protocols provided by the manufacturer (Amersham Biosciences). Briefly, receptor-carrying membrane fragments purified from RBL-hC5aR cells bind to scintillating micro particles coated with wheat germ agglutinin (WGA). […] Specific for the SPA-principle, only radio isotope and particles in immediate proximity of each other will emit light. […] The % displacement was calculated as follows: […]

human C5a receptor [3] = biological target: T1, human C5a receptor; experiment: cell-based or functional assay; remark: listed apart in the source
human C5a receptor [4] = biological target: T1, human C5a receptor; experiment: cell-based or functional assay; remark: listed apart in the source
human C5a receptor [5] = biological target: T1, human C5a receptor; experiment: SPA, unlabelled hC5a displacing 125I-hC5a from RBL-hC5aR membranes
Method: as §1

His-FcγRIIA (131H), sequence (P12318 36-218 limits assumed): as the sequence (P12318 36-218 H167R limits assumed) above, with R132H counted along it
His-FcγRI, sequence (P12314 16-288 limits assumed): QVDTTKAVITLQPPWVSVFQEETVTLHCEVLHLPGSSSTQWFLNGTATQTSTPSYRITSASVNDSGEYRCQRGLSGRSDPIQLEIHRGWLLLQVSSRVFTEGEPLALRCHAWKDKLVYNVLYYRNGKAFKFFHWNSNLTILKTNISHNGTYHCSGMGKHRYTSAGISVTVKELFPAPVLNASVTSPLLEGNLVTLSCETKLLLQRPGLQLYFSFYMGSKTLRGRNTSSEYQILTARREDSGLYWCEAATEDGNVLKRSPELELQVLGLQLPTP
His-FcγRIII (158V), sequence (P08637 17-208 F176V limits assumed): as the sequence (P08637 17-208 limits assumed) above, with F160V counted along it

Ref Ab Q variable region on IgG1 L234A, L235E (antibody)
Kd (His-FcγRIII (158V)): 960 nM

Ref Ab Q variable region on IgG4 (S228P) N297Q (antibody)
Kd (His-FcγRI): 130 nM

Ref Ab Q variable region on IgG1 N297Q (antibody)
Kd (His-FcγRI): 360 nM

Ref Ab Q variable region on IgG1 reference (antibody)
Kd (His-FcγRI): 0.664 nM
Kd (His-FcγRIIA (131H)): 640 nM
Kd (His-FcγRIIA (131R)): 950 nM
Kd (His-FcγRIIB): 420 nM
Kd (His-FcγRIII (158F)): 330 nM

Ref Ab Q variable region on IgG1 L234A, L235E, G237A, A330S and P331S (antibody)
Kd (His-FcγRIIB): 2100 nM

Ref Ab Q variable region on IgG4 (S228P) reference (antibody)
Kd (His-FcγRI): 2.71 nM
Kd (His-FcγRIIA (131H)): 3520 nM
Kd (His-FcγRIIA (131R)): 800 nM
Kd (His-FcγRIIB): 1080 nM

Ref Ab Q variable region on IgG2/4 V234A, G236A (antibody)
Kd (His-FcγRIIB): 5340 nM

B1: Ref Ab Q variable region on IgG2 reference (antibody, part only; not given: Variable regions of Ref Ab Q, not shown: another chain or arm of the molecule)
constant: ASTKGPSVFPLAPCSRSTSESTAALGCLVKDYFPEPVTVSWNSGALTSGVHTFPAVLQSSGLYSLSSVVTVPSSNFGTQTYTCNVDHKPSNTKVDKTVERKCCVECPPCPAPPVAGPSVFLFPPKPKDTLMISRTPEVTCVVVDVSHEDPEVQFNWYVDGVEVHNAKTKPREEQFNSTFRVVSVLTVVHQDWLNGKEYKCKVSNKGLPAPIEKTISKTKGQPREPQVYTLPPSREEMTKNQVSLTCLVKGFYPSDIAVEWESNGQPENNYKTTPPMLDSDGSFFLYSKLTVDKSRWQQGNVFSCSVMHEALHNHYTQKSLSLSPGK
Kd (His-FcγRIIA (131H)): 220 nM
Kd (His-FcγRIIA (131R)): 2790 nM
Kd (His-FcγRIIB): 1540 nM
Kd (His-FcγRIII (158V)): 1500 nM

B2: Ref Ab Q variable region on IgG2/IgG4 reference (antibody, part only; not given: Ref Ab Q variable regions, part only)
heavy, part: ASTKGPSVFPLAPCSRSTSESTAALGCLVKDYFPEPVTVSWNSGALTSGVHTFPAVLQSSGLYSLSSVVTVPSSNFGTQTYTCNVDHKPSNTKVDKTVERKCCVECPPCPAPPVAGPSVFLFPPKPKDTLMISRTPEVTCVVVDVSQEDPEVQFNWYVDGVEVHNAKTKPREEQFNSTYRVVSVLTVLHQDWLNGKEYKCKVSNKGLPSSIEKTISKAKGQPREPQVYTLPPSQEEMTKNQVSLTCLVKGFYPSDIAVEWESNGQPENNYKTTPPVLDSDGSFFLYSRLTVDKSRWQEGNVFSCSVMHEALHNHYTQKSLSLSLGK
Kd (His-FcγRIIA (131H)): 1030 nM
Kd (His-FcγRIIB): 1830 nM

B3: Ref Ab Q variable region on IgG4 (S228P) E233P, F234V, L235A (antibody, part only; not given: Variable regions of Ref Ab Q, not shown: another chain or arm of the molecule)
constant: ASTKGPSVFPLAPCSRSTSESTAALGCLVKDYFPEPVTVSWNSGALTSGVHTFPAVLQSSGLYSLSSVVTVPSSSLGTKTYTCNVDHKPSNTKVDKRVESKYGPPCPPCPAPPVAGGPSVFLFPPKPKDTLMISRTPEVTCVVVDVSQEDPEVQFNWYVDGVEVHNAKTKPREEQFNSTYRVVSVLTVLHQDWLNGKEYKCKVSNKGLPSSIEKTISKAKGQPREPQVYTLPPSQEEMTKNQVSLTCLVKGFYPSDIAVEWESNGQPENNYKTTPPVLDSDGSFFLYSRLTVDKSRWQEGNVFSCSVMHEALHNHYTQKSLSLSLGK
Kd (His-FcγRI): 380 nM

B4: 35F32A3 (antibody, V domains shown)
VH: QVQLVESGGGLVRPGRSLRLSCAASGFTFRDYGMHWVRQAPGKSLEWVAVIWFDGINKYYGDSVKGRFTISRDNSKNTLYLQMNSLRAEDTAMYYCVGTYFGPGTTEFFQHWGQGTLVTVSS
VL: EIVLTQSPATLSLSPGERATLSCRASQSVSSYLAWYQQKPGQAPRLLIYDASNRATGIPARFSGSGSGTDFTLTISSLEPEDFAVYYCQQRSNWPTFGPGTKVDIKR
notes: Human monoclonal antibody from HumAb mice, purified from hybridoma supernatant
Migration of human neutrophils (in % compared to migration in the absence of antibody) (human C5a receptor [1]): 11%
IC50 (human C5a receptor [2]): 0.95 nM

B5: 32F3A6 GL (antibody, human IgG1, V domains shown)
VH: EVQLVESGGGLVQPGGSLRLSCAASGFTFSSYVMHWVRQATGKGLEWVSAIDTGGGTYYADSVKGRFTISRENAKNSLYLQMNSLRAGDTAVYYCARDYYYYASGSYYKAFDIWGQGTMVTVSS
VL: EIVLTQSPGTLSLSPGERATLSCRASQSVSSRYLAWYQQKPGQAPRLLIYGASSRATGIPDRFSGSGSGTDFTLTISRLEPEDFAVYYCQQYGSPLTFGQGTKLEIKR
IC50, Neutrophil migration (Chemotaxis) Assay (human C5a receptor [3]): 1 µg/mL
IC50 CD11b up-regulation (human C5a receptor [4]): 0.7 µg/mL
IC50 CD62L down-regulation (human C5a receptor [4]): 0.5 µg/mL
IC50 Calcium-flux assay (human C5a receptor [4]): 1.8 µg/mL

B6: 32F3A6 (antibody, V domains shown)
VH: B5 VH with E6Q, Q13H, A24G, T41P, E72D, G88E, T90M
VL: B5 VL
notes: as for B4
Migration of human neutrophils (in % compared to migration in the absence of antibody) (human C5a receptor [1]): 2%
IC50 (human C5a receptor [2]): 1.9 nM

B7: 35F12A2 (antibody, V domains shown)
VH: QVQLVESGGGVVQPGRSLRLSCVASGFTFSNYGMHWVRQAPGKGLEWVAVIWYDGINKYYADSVKGRFTISRDNSKSTLYLQMNSLRAEDTAVYYCAGTYYTSGSSKHFQPWGQGTLVTVSS
VL: B4 VL with A34S
notes: as for B4
Migration of human neutrophils (in % compared to migration in the absence of antibody) (human C5a receptor [1]): 19%
IC50 (human C5a receptor [2]): 2.04 nM

B8: 35F24A3 (antibody, V domains shown)
VH: EVKLVESGGGLVKPGGSLKLSCSASGFAFSNYDMSWVRQTPEKRLEWVAAFSSDGYTFYPDSLKGRFTISRDNARNTLYLQMSSLGSEDTALYCCARHADYANYPVMDYWGQGTSVTVSS
VL: DIQMTQSPSSLSASVGDRVTITCRASQGISSWLAWYQQKPEKAPKSLIYAASSLQSGVPSRFSGSGSGTDFTLTISSLQPEDFATYYCQQYNSYPRTFGQGTKVEIKR
notes: as for B4
Migration of human neutrophils (in % compared to migration in the absence of antibody) (human C5a receptor [1]): 30%
IC50 (human C5a receptor [2]): 2.97 nM

B9: human C5a (ligand, UniProt P01031 678-751, looked up)
chain: TLQKKIEEIAAKYKHSVVKKCCYDGACVNNDETCEQRAARISLGPRCIKAFTECCVVASQLRANISHKDMQLGR
notes: C5a is only a fragment of it; also called hC5a
IC50 (human C5a receptor [5]): 4.1 nM
